# Results reported in the supplement of paper PMC12042874.
# ± gives the uncertainty stated by the source.
# Assay: amyloid nucleation score (Sup35N fusion, yeast selection) (log enrichment); library NNK2; higher = more nucleation; inactive = no reads after selection
# Method in brief: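 Nucleation score is defined as the DiMSum log enrichment of output over input reads, with centring on the mode score of non-aggregating sequences. A minimum of 100 input reads was required for each sequence. Reads came from Illumina sequencing of plasmid inserts from psi-negative yeast expressing Sup35N fused to peptides of 20 random codons, induced with 100 μM copper sulfate for 24 hours and grown 7 days at 30°C on medium lacking adenine and uracil.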
row,Substance,amyloid nucleation score
1,AFRPVSSIGLCRWYMKRWNS,0.542 ± 0.19
2,AFTWLY,0.942 ± 0.26
3,AGANLLSLCSFKHAECYFSN,6.31 ± 0.071
4,AGCVVNHTPRLLGRSTKRLK,3.1 ± 0.062
5,AGFSSDGLQVMIIYD,0.379 ± 0.31
6,AGGEEIGGVSRS,-1.07 ± 0.49
7,AGVWHSSLFITIQGVLNFGY,6.017 ± 0.02
8,AGWQCLCSLFLLKEITTCIS,-0.367 ± 0.56
9,AGYLNRNHLLRMLYWCSCFG,inactive
10,AHHRCHWYECVMMPRHGPRP,1.26 ± 0.33
11,AHSATINA,-0.113 ± 0.44
12,AIEYPYRCYRDVAWLRALAS,0.582 ± 0.28
13,AIFGFTVVLVMFMRFLQDTC,0.732 ± 0.22
14,AIFYDLMVNQRFVFTSFLWL,-0.14 ± 0.74
15,AINGHDRGLSKLGGRAGESD,0.589 ± 0.42
16,AISCSVTWNVTMTSGLTPLC,1.17 ± 0.37
17,AISSEGELLAVDFWNSNLDP,-0.509 ± 0.23
18,AISSRLILLTPRAKSFVPSD,-0.247 ± 0.65
19,AKDEERISNVVGLDCDLGVL,0.057 ± 0.42
20,AKVVHTVWACIAS,-0.943 ± 0.78
21,AKYIPHAVLKASPTVGIILV,-0.54 ± 1.1
22,ALCQYISSSYMWYSVMCELI,inactive
23,ALCYWRNSPSVGRRQWRRQC,6.654 ± 0.057
24,ALDHSV,-0.271 ± 1
25,ALDWPLICA,-0.07 ± 0.39

row,Substance,amyloid nucleation score
1,ALECGRTMEINLTGR,0.942 ± 0.37
2,ALGHR,-0.079 ± 0.45
3,ALGINFSWACG,4.998 ± 0.043
4,ALHFPVIQHFW,5.22 ± 0.073
5,ALLTVFFNLVVVWDVKAVTP,-0.159 ± 1
6,ALLYYTAVVDKNYTSDLSHD,-0.899 ± 0.37
7,ALNAG,1.11 ± 0.2
8,ALPITQNCC,-1.07 ± 0.44
9,ALSSKMMGYDRF,-0.494 ± 0.64
10,ANAKIYGNMEALETGMRL,0.553 ± 0.57
11,ANDPCGVKASRLYVLVSPRV,0.707 ± 0.19
12,ANDSSNYEYVILMRPNVIEV,-0.14 ± 0.49
13,ANERCGTLTMRSEAYHVRTW,0.808 ± 0.28
14,ANFCVDCIDIAH,0.787 ± 0.45
15,ANKLLESCFSQCLRSALFEW,-0.369 ± 0.79
16,ANLWNEGFPLNGLHDNGIDQ,-0.379 ± 0.49
17,ANMTVVGWFCIRR,6.146 ± 0.058
18,ANNFCRINESDWVRSVILPS,0.042 ± 1.1
19,ANPFKSSDATVLVDVRGMGS,3.09 ± 0.068
20,ANRFSALFGPLLRVAPPKNS,1.18 ± 0.24
21,APADH,2.52 ± 0.15
22,APENGFRFWLVNHNAVHMIL,-0.21 ± 0.79
23,APRCALQLGS,1.27 ± 0.28
24,APWYIL,0.225 ± 0.36
25,AQLVGVCFRRFCQLSTSLCY,-1.18 ± 0.64

row,Substance,amyloid nucleation score
1,AQNKNWQSFRMFPVVLAMVG,0.178 ± 0.77
2,AQVEFLYNSLVHYFSIDNTG,inactive
3,ARDCYEDDHKSKSARTVEHT,0.232 ± 0.31
4,ARFSVILNSIYRFSYLCRRL,inactive
5,ARKKALGGNNLEVVLFLFSC,4.93 ± 0.098
6,ARLAPRSLPCKWSPVAEKQR,-0.098 ± 0.79
7,ARLRC,0.001 ± 0.28
8,ARMIVCPTVFAIPWYNNSFI,-1.47 ± 0.78
9,ARPVDMHTQTYALL,-0.284 ± 1.1
10,ARRCSFWYIISVQRF,inactive
11,ARRIVMWVYECGTYCWRRTT,0.216 ± 0.43
12,ARSTAFMPEPSFLV,0.054 ± 0.56
13,ARTICTFRHMSGIGAMGLDC,0.289 ± 0.8
14,ARVCPCETTSTTVVA,1.23 ± 0.48
15,ASAPEYHQVKIYIFQFTPRA,2.02 ± 0.094
16,ASCMS,-0.056 ± 0.32
17,ASCWTVGQLTHVSVSMWGFI,0.943 ± 0.53
18,ASGEVMYVNHYVFPQAFTDE,inactive
19,ASLALYRITRVGICYIRRLR,-0.839 ± 0.78
20,ASMLWLLLDELLKWNDGVNN,2.04 ± 0.099
21,ASQAHSEIMLVVTMNALHQP,7.57 ± 0.076
22,ASRWHLIAESLSLSAVLNSF,inactive
23,ASVLWHFLPSGGARFVCSER,0.538 ± 0.5
24,ATSTITNYGLPNRPCVSYMF,-0.043 ± 0.32
25,ATTVNK,5.76 ± 0.061

row,Substance,amyloid nucleation score
1,ATTYAYTGAQLTWFRWMVVQ,0.832 ± 0.31
2,ATVYMLHALVSDGCQLGD,0.399 ± 0.31
3,ATYFWMQSVP,0.903 ± 0.74
4,AVINPPKHVVCCFD,-0.189 ± 0.23
5,AVLCWLCLLGGLNINFEECG,4.11 ± 0.045
6,AVRLSEV,0.421 ± 0.38
7,AVTIMCPAGLTMANSLVFKQ,5.18 ± 0.07
8,AVVLLLRTAGVVIGHLVLRH,-0.016 ± 0.29
9,AVWVRLTFDYWGRCTILGTV,inactive
10,AVYFYRALDVVMCAFVRKGE,6.01 ± 0.068
11,AVYSGHSYVKMSWVSGGRYW,0.747 ± 0.43
12,AWENYYSGLVNLLAASACIV,-0.163 ± 0.79
13,AWFVYYVYRMFLNVSTSYWK,0.074 ± 0.74
14,AYGQKNVSSRSLTFV,3.41 ± 0.15
15,AYSVRLDLSCDQRCSF,4.366 ± 0.041
16,AYYYTVLYYSFNMFRFVYTW,inactive
17,CADAITRHAGTFVAGWSW,0.865 ± 0.17
18,CAGGFGLKPAFVYEFWCKSI,-1.17 ± 1
19,CAGYMRRHFSAAVTWTWAEG,1.22 ± 0.69
20,CAMVKFY,-1.3 ± 0.62
21,CANIMMKSKVYKFNERRSVK,-0.873 ± 0.62
22,CANYSDARITFTYNSYKICV,1.09 ± 0.2
23,CARIWLRTWGKIRA,0.092 ± 1.1
24,CAVRF,0.498 ± 0.64
25,CAVRWVGVS,1.12 ± 0.23

row,Substance,amyloid nucleation score
1,CAVVKAILSCMFTLSSSCLH,0.441 ± 0.49
2,CCELAPWFFTI,0.068 ± 0.32
3,CCPEHRNRAGNNDFWSARTQ,0.392 ± 0.57
4,CCSISTDLCDKYFVTFCLLS,inactive
5,CCWVDLGLKRMYESLFDR,4.14 ± 0.051
6,CDKDMRILHMYGLEASEGVY,0.526 ± 0.26
7,CDSARFEGNVEAAR,-0.134 ± 0.34
8,CEALQSW,0.699 ± 0.34
9,CEIHYIIRQRSPVLSNRVQR,inactive
10,CERLDCSQKDSGCYWRRHGI,0.471 ± 0.62
11,CESWMGAKTITLELTGGDSE,0.664 ± 0.38
12,CETLSGMRGLCRKKTDVPDI,-0.036 ± 0.63
13,CFCKKCWVDSLLRRRVNNFH,-0.737 ± 1.1
14,CFCLWGLDDLVLGLGSTMRF,3.16 ± 0.057
15,CFKMIFDQGSPKMRMHHIGV,0.234 ± 0.54
16,CFLDGYWPGGELMKIGDYAL,0.248 ± 0.28
17,CFLESGSLMLYEV,-0.081 ± 1.1
18,CFNGLDLLILSTKMVSLLWY,-0.492 ± 1.1
19,CFQSRYLTRSGLKVWHTKGD,0.631 ± 0.37
20,CFTPFMLFCKDEV,-1.12 ± 0.55
21,CFTSWMRPRKSYLTDNRCIN,-0.55 ± 0.79
22,CFYSNWKQGYDICHVSGDRF,-0.956 ± 0.78
23,CGDQSVFERYETRRNLGL,0.21 ± 0.63
24,CGKLSLLNQVWIVSQPMPGQ,7.57 ± 0.064
25,CGKYSS,7.602 ± 0.041

row,Substance,amyloid nucleation score
1,CGLCMEGYSHEMIDRLSSIS,0.227 ± 0.56
2,CGLVAVNDYLGVRVGLFHIC,-1.01 ± 1.1
3,CGMCKF,-0.487 ± 0.29
4,CGSSMEYVGPLVYSAGAAEV,-0.097 ± 1.1
5,CGTLINADRPAWH,-0.593 ± 0.35
6,CGVIKHPLSGYYKRASMLCN,-1.52 ± 1.1
7,CGVMKNYDESKTYGLGLG,3.51 ± 0.1
8,CHACLWRETRVRTCVSAEHH,1.65 ± 0.35
9,CHKVWSKEDWATVWSVGGLV,-0.02 ± 1.1
10,CHRLDWINYLCGSHKAIMIV,-0.472 ± 0.5
11,CHRNFITCLYAMYSELVLVL,0.648 ± 0.54
12,CHSLGVRF,3.17 ± 0.093
13,CINRVRG,-0.398 ± 0.76
14,CIPRRGY,0.713 ± 0.74
15,CIRFVVMNIYGAASDKSMVG,7.422 ± 0.036
16,CIRMLSVIYHCPL,4.85 ± 0.07
17,CIRMNRISLGNSICWCAPNM,7.922 ± 0.047
18,CIRVGSQNVMFPIDSEPSDL,0.482 ± 0.46
19,CISMDLIVLNSFMGKPLPPP,5.39 ± 0.057
20,CITFS,-0.817 ± 0.46
21,CKLWECTLLVGWGNLLRVRG,-0.276 ± 0.76
22,CKMYVET,0.23 ± 0.38
23,CKPAVPMLN,2.49 ± 0.076
24,CKWEFKWPYWGDYLVFMCK,-0.679 ± 1.1
25,CKYVYFRPTRASSSWHVIFL,2.93 ± 0.076

row,Substance,amyloid nucleation score
1,CLAASSGVLYNEVQSYNTLV,inactive
2,CLCGTFVSVSPIGYRGQWGG,-0.467 ± 0.76
3,CLFVQSRIDYALNNLTVC,-0.755 ± 0.48
4,CLFWG,2.85 ± 0.11
5,CLKSISTRNR,-0.932 ± 0.76
6,CLLGMYIVTDTARMTVCVGL,0.444 ± 0.49
7,CLNWRSLSS,3.34 ± 0.067
8,CLRVVCLRGLFYYANSACQV,-0.199 ± 0.54
9,CLRYGISRWLRLFRINNVVE,0.046 ± 0.34
10,CLTSFEES,-0.155 ± 0.65
11,CLTTGNLWEVTAGIESVRWI,0.202 ± 0.5
12,CLYARHFVNCNGYATGTLMD,-0.163 ± 0.61
13,CLYYEPVSL,-0.263 ± 1.1
14,CMEKFTLELTVIIRHSNQLG,0.225 ± 0.31
15,CMFVILMYLHQGRKLNAVPS,-1.02 ± 1.1
16,CMFVIVKVCIVHGHIVSIAS,inactive
17,CMSTDTTLVATMMLQTESA,0.441 ± 0.23
18,CMVMGNERM,-0.011 ± 0.22
19,CMVRLKPDFITALRLSLRGR,inactive
20,CNGRVKAYVSQNYVSEYGVL,-0.1 ± 0.2
21,CNGYRKVHCLMTMSRWTYGR,1.08 ± 0.1
